# Laboratory results taken from patent US5670316, “Diagnostic applications of double D-loop formation” (Daikin Industries, Ltd.).
# B1: lambda 159-mer probe (7472-7630), heat denatured (ssDNA)
# DNA: CTGCATACTGATGCACTTCACGCCACGCGGGATGAACCTGTGGCATTTGTGCTGCCGGGAACGGCGTTTCGTGTCTCTGCCGGTGTGGCAGCCGAAATGACAGAGCGCGGCCTGGCCAGAATGCAATAACGGGAGGCGCTGTGGCTGATTTCGATAACC
# Target: RecA (UniProt P0A7G6 P0A7G6:2-353)
# Experiment: EMSA; 2.4 mM ATPgammaS, 37 C 10 min; retardation increases over 0.137-13.7 uM RecA
# Details: tags: wild-type, untagged; purified from overproducing strain JC12772 or purchased from Pharmacia; label: 32P 5'-end; both complementary strands, heat denatured
# Description: RecA protein coating of probes was normally carried out in a standard 1× RecA coating reaction buffer (10× RecA reaction buffer: 100 mM Tris acetate (pH 7.5 at 37° C.), 20 mM magnesium acetate, 500 mM sodium acetate, 10 mM DTT and 50% glycerol (Cheng et al. 1988). All of the probes, whether double-stranded or single-stranded, were denatured before use by heating to 95°–100° C. for five minutes, placed on ice for one minute, and subjected in a Tomy centrifuge to centrifugation (10,000 rpm) at 0° C. for approximately 20 seconds. Denatured probes were added immediately to room temperature RecA coating reaction buffer mixed with ATPγS and diluent (double-distilled H_2O), as necessary.
# Heat denatured ^32P-labeled double-stranded 121-mer and 159-mer DNA probes were reacted with RecA protein as described above. The final RecA-DNA reaction mixtures contained 2.4 mM ATPγS. RecA protein or RecA storage buffer was added to each of four reactions containing 0.01 μg of either denatured 121- or 159-mer DNA probe. The final concentration of RecA in each reaction was 0, 0.137, 1.37 or 13.7 μM in lanes 1 and 5, 2 and 6, 3 and 7 or 4 and 8, respectively (FIG. 3). All RecA/DNA probe coating reactions were performed in a final volume of 10 μl. RecA binding was initiated by incubating all the reactions at 37° C. for 10 min. […]
# Sequence of RecA (P0A7G6 2-353, one chain of several): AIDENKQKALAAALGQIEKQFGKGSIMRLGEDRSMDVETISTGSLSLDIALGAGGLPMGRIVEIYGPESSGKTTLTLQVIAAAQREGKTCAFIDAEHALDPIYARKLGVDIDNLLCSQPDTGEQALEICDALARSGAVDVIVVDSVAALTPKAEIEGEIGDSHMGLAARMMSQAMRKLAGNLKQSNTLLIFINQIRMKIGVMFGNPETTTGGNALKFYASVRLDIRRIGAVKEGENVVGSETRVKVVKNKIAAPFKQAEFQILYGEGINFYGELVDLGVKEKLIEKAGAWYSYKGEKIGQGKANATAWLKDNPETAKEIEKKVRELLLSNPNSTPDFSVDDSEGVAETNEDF
binder,measurement,value
B1,binding result,binds
